Results: the nanobody polyreactivity screen of Harvey et al. (2022)

Experiment: yeast display, Sf9 membrane polyspecificity reagent, FACS + sequencing; frameworks hold sequencing errors
Procedure, shortened: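 After 36–48 hours of galactose induction, yeast (Saccharomyces cerevisiae BJ5465) displaying a synthetic nanobody library were stained at 4 °C for 1 hour with 10% biotinylated, detergent-solubilized Sf9 membrane reagent. Streptavidin microbeads enriched the stained cells before FACS sorting into low and high (top ~1%) gates on anti-HA and streptavidin fluorescence. Each clone's polyreactivity label reflects its gate of origin.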

Sequence	polyreactivity (PSR sort gate)
QVQLVESGGGLVQAGGSLRLSSAASGRTFFINAMGWYRQAPGKERDLVATITSGGITNYADSVKGRFTISRDNAKNTDYLQMNSLKPEDTAVYYCAVRWYGKYSGVRYYYWGQGTQVTVSS	high polyreactivity
QVQLVESGGGLVQAGGSLRLSSAASGRTFFPNAMGWYRQAPGKERELVAAISSGGGGTYYADSVKGRFTISRDKAKNTVYLQMNRLKPEDTAVYYCAGRNSKVEEEGNYWGQGTQVTVSS	low polyreactivity
QVQLVESGGGLVQAGGSLRLSSAASGRTFFYYAMGWYRQAPGKERELVAVISGSGARTYYADSVKGRFTISRDNAKYTVYLQMNSLKPEDTAVYYWIKVFARSRSSRYQAYDYWGQGTQVTVSS	high polyreactivity
QVQLVESGGGLVQAGGSLRLSSAASGRTFPSYAMGWYRQAPGKERELVAAISSSGGSTYYADSVKGRFTISRDNAKNTFYLQMNSLKPEDTAVYYCNKQFPYAKYYIMGYWGQGTQVTVSS	high polyreactivity
QVQLVESGGGLVQAGGSLRLSSAASGRTFTVNAMGSYRQAPGKERELVAAISQRGASTYYADSVKGRFTISRDNAKNTVYLQMNSLKPVDTAVYYCAAHLRYKYDYWGQGTQVTVSS	high polyreactivity
QVQLVESGGGLVQAGGSLRLSSAASGRTFTYYAMGWYRQAPGTERELVAAISSGGRTDYADSVKGRFTISRDNAKNTVYLQMNSLKPEDTAVYYCNARPKVYYREYDYWGQGNQVTVSS	high polyreactivity
QVQLVESGGGLVQAGGSLRLSSAASGRTFYSNAMGWYRQAPGKEREFVAAINWSGTSTYADSVKGRFTISRDNAKNTVYLQMNSLKPEDTAVYYCAKTYRTLVRYWGQPFGYWGQGTQVTVSS	high polyreactivity
QVQLVESGGGLVQAGGSLRLSSAASGRTLARNAMGWYRQAPGKERELVAGITSGGSTDYADSVKGRFTISRDNAKNTVYLQMNSLKPEDTAVYYCNRDAGPGGDYWGQGTQGTVSS	low polyreactivity
QVQLVESGGGLVQAGGSLRLSSAASGSIFAWYGMGWYRQAPGKERELVAAISTAGSTNYADSVKGRFTISRDNAKNTVYLQMNSLKPEDTAVYYCAKKSSWYYPERFDYWGQGTQVTVSS	low polyreactivity
QVQLVESGGGLVQAGGSLRLSSAASGSIFDYYAMGWSRQAPGKERELVAAISGSGGSTYYADSVKGRFTISRDNAKNTVYLQMNSLKPEDTAVYYCNVYYRRRYDYWGQGTQVTVSS	high polyreactivity
QVQLVESGGGLVQAGGSLRLSSAASGSIFERYTMAWYRLAPGKERELVAVISTGGGSTNYADSVKGRFTFSRDNAKNTVYLQMNSLKPADTAVYYCAASYGYYRYGYWGQGTQVNVSS	high polyreactivity
QVQLVESGGGLVQAGGSLRLSSAASGSIFGSNAMGWYRQAPGKERELVATITTSGGITYYADSVKGRFTISRDTAKNTVYLQMNSLKPEDTAVYYCAAAEGGGLVTYDYWGQGTQVTVSS	low polyreactivity
QVQLVESGGGLVQAGGSLRLSSAASGSIFLGNAMGWYRQAPGKERELVAAISSITGRTYYADSVKGRFTISRDNAKNTVYLQMNSLKPEDTAVYYCAATSLIYGYRTYDYWGQGTQVTVSS	high polyreactivity
QVQLVESGGGLVQAGGSLRLSSAASGSIFLVNAMGWYRQAPGKERELVAAINSGGSTYYADSVKGRFTISRDNAKNTVYLQMNSLKPEDTAVYYCAADFWLKVWQDTDYDFDYWGQGTQVTVSS	low polyreactivity
QVQLVESGGGLVQAGGSLRLSSAASGSIFRIYAMGWYRQAPGKERELVAAMSSGGSTYYADSVKGRFTISRDNAKNTVYLQMNSLKPEDTAVYYCAAYPEYVSGAWYDYWGQGTQVTLSS	low polyreactivity
QVQLVESGGGLVQAGGSLRLSSAASGSIFRWNAMGWYRQAPGKERELVAVITWRGGRTYYADSVKGRFTISRDNAKNTVYLQMNSLKPEDTAVYYCGKGRLVTTLFGHYATFEYDSWGQGTQVTVSS	high polyreactivity
QVQLVESGGGLVQAGGSLRLSSAASGSIFSSYAMGWYRQAPGKERELVAAISTGGSTYYADSVKGRFTISRDNAKNTVYLQMNSLKPEDTAVYYCAAGIMDLKLYFSSYDYWGQGTQVTVSS	low polyreactivity
QVQLVESGGGLVQAGGSLRLSSAASGSIFYGNAMGWYRQAPGKESELVAAISARGGSTNYADSVKGRFTISRDNAKITVYLQMNSLIPEDTAVYYCAAKVRVWYYRMDSWGQGTQVTVSS	low polyreactivity
QVQLVESGGGLVQAGGSLRLSSAASGSIFYVYAMGWYRQAPGKERELVAAISRRGARTYYADSVKGRFTISRDNEKNTVYLQMNILKPEDTAVYYCYADQYHTVGYSAEYEYWGQGTQVTVSS	low polyreactivity
QVQLVESGGGLVQAGGSLRLSSAASGSILTPNAMGWYRQAPGKERELVAAINYSGGSTYYADSVKGRFTISRDTAKNTVYLQMNSLKPEDTAVYYCAVPYWYGRGHCYWGQGTQVTVSS	low polyreactivity
QVQLVESGGGLVQAGGSLRLSSAASGSIYGYTMGWYRQAPGKERELVAAINRRADRTYYADSVKGRFTISRDNAKNTVYLEMNILKPEDTAVYYCNKGGWYTLGYWGQGTQVTVSS	high polyreactivity
